Measurements from article PMC6033355.
pKd, pKi: −log10 of the molar value.

Experiments:
[1] = target: MMP-9 catalytic domain (Homo sapiens) (UniProt P14780); conditions: cited from earlier work
[2] = target: V3, soluble IL-17RA (extracellular domain of the IL-17A receptor with point mutations that increase affinity for IL-17A); experiment: BLI; Octet Red; HD_(N-TIMP2,V3) or V3 loaded on Protein A sensors (10 ug/ml, 300 s); IL-17A or MMP-9CAT in solution at 50, 100, 200 nM; 300 s association, 1800-2500 s dissociation; 30 C; PBS, 1% BSA, 0.05% Tween; 1:1 binding model
[3] = target: HD_(N-TIMP2,V3) bi-specific heterodimer (N-TIMP2 fused by a linker to V3, the engineered soluble extracellular domain of the IL-17A receptor, with human IgG1 Fc and 6xHis); experiment: as above

IL-17A (interleukin-17A), sequence (Q16552 24-155): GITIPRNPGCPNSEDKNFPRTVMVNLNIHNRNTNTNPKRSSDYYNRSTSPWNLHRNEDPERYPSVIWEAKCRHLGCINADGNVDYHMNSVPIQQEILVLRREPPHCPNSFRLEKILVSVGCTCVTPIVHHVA
MMP-9 catalytic domain (Homo sapiens), sequence (P14780 107-443): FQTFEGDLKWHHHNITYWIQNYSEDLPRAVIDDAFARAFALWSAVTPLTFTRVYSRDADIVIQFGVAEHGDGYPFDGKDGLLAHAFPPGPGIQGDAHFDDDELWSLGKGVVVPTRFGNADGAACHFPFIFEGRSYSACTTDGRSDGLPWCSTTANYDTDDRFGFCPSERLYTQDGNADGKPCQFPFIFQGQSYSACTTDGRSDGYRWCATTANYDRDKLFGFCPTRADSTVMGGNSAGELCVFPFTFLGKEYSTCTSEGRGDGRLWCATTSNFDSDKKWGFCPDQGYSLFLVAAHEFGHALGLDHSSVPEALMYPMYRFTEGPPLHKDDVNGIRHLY
N-TIMP2 N-terminal domain, sequence (P16035 27-153): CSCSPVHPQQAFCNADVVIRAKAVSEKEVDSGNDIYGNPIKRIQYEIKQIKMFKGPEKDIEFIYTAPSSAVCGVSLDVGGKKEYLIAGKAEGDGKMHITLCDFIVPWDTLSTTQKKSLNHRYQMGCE

pKd [2]	pKd [3]	Substance	pKi [1]
–	–	N-TIMP2 N-terminal domain (from UniProt P16035)	10.00
9.91	10.32	IL-17A (interleukin-17A) (from UniProt Q16552 24-155) (ligand)	–
